Measurements from PMC3949604.

Target: AhR (baculovirus);Arnt (baculovirus) (human;human, UniProt P35869;P27540 1-848;1-789, |)
Test: EMSA

Chain of AhR (baculovirus);Arnt (baculovirus) (P35869 whole entry, chain 1 of 2): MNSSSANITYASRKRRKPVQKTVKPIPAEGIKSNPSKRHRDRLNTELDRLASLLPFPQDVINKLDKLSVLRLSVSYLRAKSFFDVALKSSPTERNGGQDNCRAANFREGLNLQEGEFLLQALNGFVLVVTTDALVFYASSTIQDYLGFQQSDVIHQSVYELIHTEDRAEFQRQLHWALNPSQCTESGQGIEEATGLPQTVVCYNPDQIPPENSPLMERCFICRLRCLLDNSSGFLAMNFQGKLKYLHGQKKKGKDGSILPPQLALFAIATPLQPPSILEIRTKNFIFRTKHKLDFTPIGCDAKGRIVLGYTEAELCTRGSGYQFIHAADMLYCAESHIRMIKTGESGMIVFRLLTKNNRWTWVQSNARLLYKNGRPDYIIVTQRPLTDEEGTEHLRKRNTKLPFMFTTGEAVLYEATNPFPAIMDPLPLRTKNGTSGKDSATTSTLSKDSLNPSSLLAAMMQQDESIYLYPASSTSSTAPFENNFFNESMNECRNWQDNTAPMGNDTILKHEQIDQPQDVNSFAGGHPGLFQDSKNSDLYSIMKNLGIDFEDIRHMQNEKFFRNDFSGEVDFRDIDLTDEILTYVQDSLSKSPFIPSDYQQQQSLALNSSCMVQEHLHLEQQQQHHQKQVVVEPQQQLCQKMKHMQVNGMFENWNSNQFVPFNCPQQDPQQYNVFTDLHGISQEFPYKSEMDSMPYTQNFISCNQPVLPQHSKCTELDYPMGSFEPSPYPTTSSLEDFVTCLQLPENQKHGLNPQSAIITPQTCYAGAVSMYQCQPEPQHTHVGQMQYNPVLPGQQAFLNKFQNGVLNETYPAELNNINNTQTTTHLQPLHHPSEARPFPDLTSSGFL
Chain of AhR (baculovirus);Arnt (baculovirus) (P27540 whole entry, chain 2 of 2): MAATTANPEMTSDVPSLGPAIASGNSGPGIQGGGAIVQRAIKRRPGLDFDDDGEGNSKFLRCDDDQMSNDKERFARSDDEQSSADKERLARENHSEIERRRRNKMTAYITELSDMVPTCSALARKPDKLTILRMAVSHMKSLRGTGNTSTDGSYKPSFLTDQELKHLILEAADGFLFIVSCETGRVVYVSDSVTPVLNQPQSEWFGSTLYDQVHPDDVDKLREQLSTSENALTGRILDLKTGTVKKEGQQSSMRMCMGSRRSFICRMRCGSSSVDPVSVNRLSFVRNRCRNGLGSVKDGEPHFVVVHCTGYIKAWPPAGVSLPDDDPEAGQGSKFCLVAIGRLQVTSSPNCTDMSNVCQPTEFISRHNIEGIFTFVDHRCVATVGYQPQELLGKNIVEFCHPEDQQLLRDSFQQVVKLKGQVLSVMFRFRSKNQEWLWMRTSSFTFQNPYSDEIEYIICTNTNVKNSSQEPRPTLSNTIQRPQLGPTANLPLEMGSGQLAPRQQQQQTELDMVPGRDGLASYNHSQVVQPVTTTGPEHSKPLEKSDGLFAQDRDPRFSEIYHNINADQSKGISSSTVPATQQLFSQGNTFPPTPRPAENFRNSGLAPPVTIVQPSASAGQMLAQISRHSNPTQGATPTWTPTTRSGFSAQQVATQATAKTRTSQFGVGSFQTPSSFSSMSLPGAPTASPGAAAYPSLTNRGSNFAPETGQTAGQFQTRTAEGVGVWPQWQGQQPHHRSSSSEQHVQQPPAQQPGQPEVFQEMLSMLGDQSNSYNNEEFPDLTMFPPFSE

B1: DRE gel shift probe (OL439/OL440) (dsDNA)
DNA 1: TCGAGTAGATCACGCAATGGGCCCAGC
DNA 2: TCGAGCTGGGCCCATTGCGTGATCTAC
binding result: binds
